Here are results for eleven substances from patent publication US20220177587A1, “METHODS AND USES OF VARIANT CD80 FUSION PROTEINS AND RELATED CONSTRUCTS” (Alpine Immune Sciences, Inc., priority 2018, published 2022).

For experiment [1], the target named is human CTLA-4 (human) (UniProt P16410). Briefly: flow cytometry, CHO cells stably expressing CTLA4. Background: Flow cytometry measures light scatter and fluorescence of single cells or particles in a stream.
Experiment [2] concerns the target PD-L1 (human) (UniProt Q9NZQ7). Briefly: flow cytometry, CHO cells stably expressing PD-L1.
Experiment [3] addresses human CTLA-4 (human) (UniProt P16410). The experiment in a line: flow cytometry, CHO/CTLA4 cells; MFI over CD80 WT IgV-Fc.
In experiment [4] the target is PD-L1 (human) (UniProt Q9NZQ7). The experiment in a line: flow cytometry, CHO/PD-L1 cells; MFI over CD80 WT IgV-Fc.
PD-L1 (human), sequence (Q9NZQ7 19-290): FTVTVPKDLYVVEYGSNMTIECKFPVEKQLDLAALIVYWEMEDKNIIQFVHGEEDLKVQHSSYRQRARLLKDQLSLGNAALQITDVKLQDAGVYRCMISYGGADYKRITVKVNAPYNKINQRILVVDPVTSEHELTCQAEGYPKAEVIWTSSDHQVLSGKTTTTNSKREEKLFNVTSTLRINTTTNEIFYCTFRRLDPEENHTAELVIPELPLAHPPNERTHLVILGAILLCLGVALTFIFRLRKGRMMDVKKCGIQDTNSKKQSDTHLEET
For experiment [5], the target named is CD28 (human) (UniProt P10747). Briefly: flow cytometry, Jurkat cells (CD28).
In experiment [6] the target is CD28 (human) (UniProt P10747). Briefly: flow cytometry, Jurkat cells (CD28); MFI over CD80 WT IgV-Fc.
Experiment [7] deals with CD28 (human) (UniProt P10747).
The target of experiment [8] is PD-L1 (human) (UniProt Q9NZQ7).
In experiment [9] the target is PD-L1 (human) (UniProt Q9NZQ7). The experiment in a line: flow cytometry, CHO/huPD-L1 cells; vs WT CD80 ECD-Fc (Abcam).
The target in experiment [10] is human CTLA-4 (human) (UniProt P16410). The experiment in a line: flow cytometry, CHO cells expressing huCTLA-4.
Experiment [11] concerns the target PD-L1 (human) (UniProt Q9NZQ7). The experiment in a line: flow cytometry, CHO cells expressing huPD-L1.
Experiment [12] addresses CD28 (human) (UniProt P10747). Briefly: flow cytometry, Jurkat/IL2 reporter cells (CD28).
Experiment [13] addresses human CTLA-4 (human) (UniProt P16410). Briefly: flow cytometry, CHO/huCTLA-4 cells; vs WT CD80 ECD-Fc (Abcam).
In experiment [14] the target is CD28 (human) (UniProt P10747). The source holds these as a separate data set.
For experiment [15], the target named is PD-L1 (human) (UniProt Q9NZQ7). The experiment in a line: flow cytometry, HEK293 cells transfected with full-length human PD-L1, PE anti-human Fc.
Experiment [16] deals with human CTLA-4 (human) (UniProt P16410). Briefly: flow cytometry, CHO cells expressing huCTLA4.
The target in experiment [17] is PD-L1 (human) (UniProt Q9NZQ7). The experiment in a line: flow cytometry, CHO cells expressing huPD-L1. This is another data set of the same source.
Experiment [18] deals with CD28 (human) (UniProt P10747). Briefly: flow cytometry, Jurkat/IL2 reporter cells (CD28), vs WT CD80 ECD-Fc (R&D).
Experiment [19] addresses human CTLA-4 (human) (UniProt P16410). The experiment in a line: flow cytometry, CHO cells expressing huCTLA4, vs WT CD80 ECD-Fc (R&D).
Experiment [20] deals with CD28 (human) (UniProt P10747). The experiment in a line: flow cytometry, Jurkat/IL2 reporter cells (CD28). This is another data set of the same source.
The target of experiment [21] is human PD-L1 (huPD-L1), on stably transduced CHO cells (human) (UniProt Q9NZQ7). The experiment in a line: flow cytometry on CHO cells stably expressing huPD-L1, 33.3 nM Fc fusion, PE anti-human Fc.
human PD-L1 (huPD-L1), on stably transduced CHO cells (human), sequence (Q9NZQ7 19-290): as above
Experiment [22] has as its target CD28, endogenously expressed on Jurkat/IL2 reporter cells (human) (UniProt P10747). Briefly: flow cytometry on Jurkat (CD28) cells; MFI relative to WT CD80 (CD80 WT IgV-Fc = 1.0).
Experiment [23] deals with human PD-L1 (huPD-L1), on stably transduced CHO cells (human) (UniProt Q9NZQ7). Briefly: flow cytometry; ratio of MFI on CHO/huPD-L1 cells to MFI on Jurkat (CD28) cells.
Experiment [24] deals with human CTLA-4 (huCTLA4), on stably transduced CHO cells (human) (UniProt P16410). The experiment in a line: flow cytometry on CHO/huCTLA4 cells; MFI relative to WT CD80 (CD80 WT IgV-Fc = 1.0).
human CTLA-4 (huCTLA4), on stably transduced CHO cells (human), sequence (P16410 36-223): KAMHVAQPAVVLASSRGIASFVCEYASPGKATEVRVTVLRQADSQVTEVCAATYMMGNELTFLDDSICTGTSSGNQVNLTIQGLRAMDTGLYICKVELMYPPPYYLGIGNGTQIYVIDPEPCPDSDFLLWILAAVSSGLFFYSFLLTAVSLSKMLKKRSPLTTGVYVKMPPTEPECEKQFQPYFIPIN
The target of experiment [25] is CD28, endogenously expressed on Jurkat/IL2 reporter cells (human) (UniProt P10747). The experiment in a line: flow cytometry on Jurkat/IL2 reporter cells (endogenous CD28), 33.3 nM Fc fusion, PE anti-human Fc.
The target in experiment [26] is human CTLA-4 (huCTLA4), on stably transduced CHO cells (human) (UniProt P16410). Briefly: flow cytometry on CHO cells stably expressing huCTLA4, 33.3 nM Fc fusion, PE anti-human Fc.
Experiment [27] deals with human PD-L1 (huPD-L1), on stably transduced CHO cells (human) (UniProt Q9NZQ7). The experiment in a line: flow cytometry on CHO/huPD-L1 cells; MFI relative to WT CD80 (CD80 WT IgV-Fc = 1.0).
Experiment [28] concerns the target PD-L1 (human) (UniProt Q9NZQ7). The experiment in a line: flow cytometry, HEK293 cells transfected with human PD-L1.

human CTLA-4 (human), sequence (P16410 36-223): as above

For the substance “variant CD80 IgV-Fc (inert) H18Y/E35D/M47V/V68M/A71G/D90G (Fc fusion)”, the MFI at 33.3 nM with human CTLA-4 (human) [1] worked out at 17200 MFI; with PD-L1 (human) [2], 52200 MFI; with CD28 (human) [5], 6790 MFI. The Fold change to WT CD80 is 12.4 fold with human CTLA-4 (human) [3], 316 fold in the experiment with PD-L1 (human) [4] and 66.6 fold in the experiment with CD28 (human) [6]. For the same substance, the IL2-luciferase reporter, fold increase in RLU over WT CD80-IgV-Fc at 5.0 nM in the experiment with CD28 (human) [7] and with PD-L1 (human) [8] was 4.8 fold throughout.

Turning to “variant CD80 IgV-Fc D46V/M47L/L85Q (Fc fusion)”, the Fold change to WT CD80 in the experiment with PD-L1 (human) [9] amounted to 46.7 fold; with human CTLA-4 (human) [13], 1 fold. The MFI at 33.3 nM was 40200 MFI with human CTLA-4 (human) [10], 5980 MFI with PD-L1 (human) [11] and 567 MFI in the experiment with CD28 (human) [12].

With “variant CD80 IgV-Fc D46V/V68M (Fc fusion)”, the Fold change to WT CD80 with PD-L1 (human) [9] turned out to be 17.7 fold. The MFI at 33.3 nM was determined as 5330 MFI with human CTLA-4 (human) [10], 2270 MFI in the experiment with PD-L1 (human) [11] and 556 MFI with CD28 (human) [12].

Turning to “variant CD80 IgV-Fc E35D/A71D (SEQ ID NO 176) (Fc fusion)”, the Fold increase in IL2 reporter signal (Jurkat/IL2 reporter assay) (fold vs WT CD80 IgV-Fc) in the experiment with CD28 (human) [14] stood at 0.36.

With “variant CD80 IgV-Fc E35D/A71D (SEQ ID NO 194) (Fc fusion)”, the Fold increase in IL2 reporter signal (Jurkat/IL2 reporter assay) (fold vs WT CD80 IgV-Fc) in the experiment with CD28 (human) [14] stood at 0.2.

“variant CD80 IgV-Fc E35D/A71D (SEQ ID NO: 194) (Fc fusion)” registered an MFI at 22.2 nM with PD-L1 (human) [15] of 13800 MFI.

As for “variant CD80 IgV-Fc E35D/M42V/M47V/E52D/L85Q (Fc fusion)”, the MFI at 33.3 nM came to 226000 MFI with human CTLA-4 (human) [16], 11900 MFI with PD-L1 (human) [17] and 1290 MFI with CD28 (human) [20]. Moreover, the Fold change to WT CD80 with CD28 (human) [18] was 0.07 fold; in the experiment with human CTLA-4 (human) [19], 1.44 fold.

“variant CD80 IgV-Fc E35D/M47V/N48K/K89N (Fc fusion)”: the Fold change to WT CD80 in the experiment with PD-L1 (human) [9] amounted to 52.1 fold; with human CTLA-4 (human) [13] it was 1.1 fold. For the same substance, the MFI at 33.3 nM was 43800 MFI with human CTLA-4 (human) [10], 6670 MFI in the experiment with PD-L1 (human) [11] and 701 MFI with CD28 (human) [12].

For the substance “variant CD80 IgV-Fc E35D/T41S/N48T (Fc fusion)”, the MFI at 33.3 nM in experiment [21] was determined as 2190 MFI; in experiment [25], 72.4 MFI; in [26], 30300 MFI. Also, the Fold change to WT CD80 in [22] stood at 1.1 fold; in experiment [24], 15.8 fold; in experiment [27], 31.2 fold. In experiment [23], the Ratio of PDL1:CD28 turned out to be 30.

“variant CD80 IgV-Fc S44P/A71D (Fc fusion)” yielded an MFI at 22.2 nM in the experiment with PD-L1 (human) [28] of 6310.

As for “variant CD80 IgV-Fc V22L/M38V/M47T/A71D/L85M (Fc fusion)”, the Fold increase in IL2 reporter signal (Jurkat/IL2 reporter assay) (fold vs WT CD80 IgV-Fc) in the experiment with CD28 (human) [14] was 0.43.
